Measured values as given in patent US20230002480A1.

Columns and labels:
Experiment in all cases: cell-based or functional assay
[1] = biological target: HIV-1 Env of pseudovirus X2088_c9 (HIV-1)
[2] = biological target: HIV-1 Env of pseudovirus BF1266.431a (HIV-1)
[3] = biological target: HIV-1 Env of pseudovirus Q769.d22 (HIV-1)
[4] = biological target: HIV-1 Env of pseudovirus Ce704809221_1B3 (HIV-1)
[5] = biological target: HIV-1 Env of pseudovirus 0815.v3.c3 (HIV-1)
[6] = biological target: HIV-1 Env of pseudovirus BJOX015000.11.5 (HIV-1)
[7] = biological target: HIV-1 Env of pseudovirus 3415.v1.c1 (HIV-1)
[8] = biological target: HIV-1 Env of pseudovirus A07412M1.vrc12 (clade D) (HIV-1)
[9] = biological target: HIV-1 Env of pseudovirus 6480.v4.c25 (clade CD) (HIV-1)
[10] = biological target: HIV-1 Env of pseudovirus X2131_C1_B5 (clade G) (HIV-1)
[11] = biological target: HIV-1 Env of pseudovirus 231966.c02 (clade D) (HIV-1)
[12] = biological target: HIV-1 Env of pseudovirus 6811.v7.c18 (clade CD) (HIV-1)
[13] = biological target: HIV-1 Env of pseudovirus 3016.v5.c45 (clade D) (HIV-1)
[14] = biological target: HIV-1 Env of pseudovirus 0815.v3.c3 (clade ACD) (HIV-1)
[15] = biological target: HIV-1 Env of pseudovirus X1632_S2_B10 (clade G) (HIV-1)
[16] = biological target: HIV-1 Env of pseudovirus 6952.v1.c20 (clade CD) (HIV-1)
[17] = biological target: HIV-1 Env of pseudovirus 6545.v4.c1 (clade AC) (HIV-1)
[18] = biological target: HIV-1 Env of pseudovirus 89-F1_2_25 (clade CD) (HIV-1)
[19] = biological target: HIV-1 Env of pseudovirus 6540.v4.c1 (clade AC) (HIV-1)
[20] = biological target: HIV-1 Env of pseudovirus P1981_C5_3 (clade G) (HIV-1)
[21] = biological target: HIV-1 Env of pseudovirus 231965.c01 (clade D) (HIV-1)
[22] = biological target: HIV-1 Env of pseudovirus 3301.v1.c24 (clade AC) (HIV-1)
[23] = biological target: HIV-1 Env of pseudovirus 6041.v3.c23 (clade AC) (HIV-1)
[24] = biological target: HIV-1 Env of pseudovirus 3103.v3.c10 (clade ACD) (HIV-1)
[25] = biological target: HIV-1 Env of pseudovirus 3817.v2.c59 (clade CD) (HIV-1)

## 3BNC117 (antibody)
[1]
  IC50, titer in TZM.bl cells: > 50 µg/mL
  IC80, titer in TZM.bl cells: > 50 µg/mL
[2]
  neutralization IC50: 0.03 µg/mL
  neutralization IC80: 0.09 µg/mL
[3]
  neutralization IC50: 0.01 µg/mL
  neutralization IC80: 0.04 µg/mL
[4]
  neutralization IC50: 0.08 µg/mL
  neutralization IC80: 0.31 µg/mL
[5]
  IC50, titer in TZM.bl cells: 0.01 µg/mL
  IC80, titer in TZM.bl cells: 0.02 µg/mL
[6]
  IC50, titer in TZM.bl cells: 0.05 µg/mL
  IC80, titer in TZM.bl cells: 0.32 µg/mL
[7]
  neutralization IC50: 0.17 µg/mL
  neutralization IC80: 0.47 µg/mL

## 8ANC195 (antibody)
[1]
  IC50, titer in TZM.bl cells: > 50 µg/mL
  IC80, titer in TZM.bl cells: > 50 µg/mL
[2]
  neutralization IC50: > 50 µg/mL
  neutralization IC80: > 50 µg/mL
[3]
  neutralization IC50: 0.26 µg/mL
  neutralization IC80: 1.2 µg/mL
[4]
  neutralization IC50: 0.48 µg/mL
  neutralization IC80: 3.52 µg/mL
[6]
  IC50, titer in TZM.bl cells: 0.97 µg/mL
  IC80, titer in TZM.bl cells: 4.3 µg/mL

## N49P6 (antibody)
[1]
  IC50: 27 µg/mL
  IC80: > 50 µg/mL
  MPI: 65
[2]
  IC50: 0.083 µg/mL
  IC80: 0.283 µg/mL
  MPI: 100
[3]
  IC50: 0.072 µg/mL
  IC80: 0.318 µg/mL
  MPI: 100
[4]
  IC50: 1.67 µg/mL
  IC80: 12.8 µg/mL
  MPI: 97
[5]
  IC50: 0.194 µg/mL
  IC80: 1.25 µg/mL
  MPI: 100
[6]
  IC50: 0.07 µg/mL
  IC80: 0.312 µg/mL
  MPI: 100
[7]
  IC50: 0.188 µg/mL
  IC80: 0.648 µg/mL
  MPI: 100

## N49P7 (antibody)
[8]
  IC50, neutralization titer in TZM.bl cells: 0.108 µg/mL
  IC80, neutralization titer in TZM.bl cells: 0.645 µg/mL
  MPI, neutralization in TZM.bl cells: 100
[9]
  IC50, neutralization titer in TZM.bl cells: 0.031 µg/mL
  IC80, neutralization titer in TZM.bl cells: 0.113 µg/mL
  MPI, neutralization in TZM.bl cells: 100
[10]
  IC50, neutralization titer in TZM.bl cells: 0.081 µg/mL
  IC80, neutralization titer in TZM.bl cells: 0.273 µg/mL
  MPI, neutralization in TZM.bl cells: 100
[11]
  IC50, neutralization titer in TZM.bl cells: 0.102 µg/mL
  IC80, neutralization titer in TZM.bl cells: 0.43 µg/mL
  MPI, neutralization in TZM.bl cells: 100
[12]
  IC50, neutralization titer in TZM.bl cells: 0.229 µg/mL
  IC80, neutralization titer in TZM.bl cells: 0.992 µg/mL
  MPI, neutralization in TZM.bl cells: 100
[13]
  IC50, neutralization titer in TZM.bl cells: 0.221 µg/mL
  IC80, neutralization titer in TZM.bl cells: 1.04 µg/mL
  MPI, neutralization in TZM.bl cells: 100
[14]
  IC50, neutralization titer in TZM.bl cells: 0.016 µg/mL
  IC80, neutralization titer in TZM.bl cells: 0.053 µg/mL
  MPI, neutralization in TZM.bl cells: 100
[1]
  neutralization IC50: 0.116 µg/mL
  neutralization IC80: 0.338 µg/mL
  neutralization MPI: 100
[15]
  IC50, neutralization titer in TZM.bl cells: 12 µg/mL
  IC80, neutralization titer in TZM.bl cells: 40.4 µg/mL
  MPI, neutralization in TZM.bl cells: 85
[2]
  neutralization IC50: 0.057 µg/mL
  neutralization IC80: 0.199 µg/mL
  neutralization MPI: 100
[16]
  IC50, neutralization titer in TZM.bl cells: 18.4 µg/mL
  IC80, neutralization titer in TZM.bl cells: 38.9 µg/mL
  MPI, neutralization in TZM.bl cells: 91
[3]
  neutralization IC50: 0.025 µg/mL
  neutralization IC80: 0.111 µg/mL
  neutralization MPI: 100
[17]
  IC50, neutralization titer in TZM.bl cells: 2 µg/mL
  IC80, neutralization titer in TZM.bl cells: 14.7 µg/mL
  MPI, neutralization in TZM.bl cells: 96
[18]
  IC50, neutralization titer in TZM.bl cells: 21.6 µg/mL
  IC80, neutralization titer in TZM.bl cells: > 50 µg/mL
  MPI, neutralization in TZM.bl cells: 80
[4]
  neutralization IC50: 0.141 µg/mL
  neutralization IC80: 0.932 µg/mL
  neutralization MPI: 100
[19]
  IC50, neutralization titer in TZM.bl cells: 11.7 µg/mL
  IC80, neutralization titer in TZM.bl cells: 33.2 µg/mL
  MPI, neutralization in TZM.bl cells: 92
[20]
  IC50, neutralization titer in TZM.bl cells: 0.113 µg/mL
  IC80, neutralization titer in TZM.bl cells: 0.274 µg/mL
  MPI, neutralization in TZM.bl cells: 100
[21]
  IC50, neutralization titer in TZM.bl cells: 0.054 µg/mL
  IC80, neutralization titer in TZM.bl cells: 0.193 µg/mL
  MPI, neutralization in TZM.bl cells: 100
[22]
  IC50, neutralization titer in TZM.bl cells: 0.025 µg/mL
  IC80, neutralization titer in TZM.bl cells: 0.069 µg/mL
  MPI, neutralization in TZM.bl cells: 100
[6]
  neutralization IC50: 0.036 µg/mL
  neutralization IC80: 0.157 µg/mL
  neutralization MPI: 100
[23]
  IC50, neutralization titer in TZM.bl cells: 0.047 µg/mL
  IC80, neutralization titer in TZM.bl cells: 0.222 µg/mL
  MPI, neutralization in TZM.bl cells: 100
[7]
  neutralization IC50: 0.16 µg/mL
  neutralization IC80: 0.55 µg/mL
  neutralization MPI: 100
[24]
  IC50, neutralization titer in TZM.bl cells: 0.158 µg/mL
  IC80, neutralization titer in TZM.bl cells: 0.509 µg/mL
  MPI, neutralization in TZM.bl cells: 100
[25]
  IC50, neutralization titer in TZM.bl cells: 0.716 µg/mL
  IC80, neutralization titer in TZM.bl cells: 3.73 µg/mL
  MPI, neutralization in TZM.bl cells: 99

## NIH 45-46 (antibody)
[1]
  IC50, titer in TZM.bl cells: > 50 µg/mL
  IC80, titer in TZM.bl cells: > 50 µg/mL
[2]
  neutralization IC50: 0.01 µg/mL
  neutralization IC80: 0.03 µg/mL
[3]
  neutralization IC50: 0.01 µg/mL
  neutralization IC80: 0.04 µg/mL
[4]
  neutralization IC50: 0.15 µg/mL
  neutralization IC80: 0.88 µg/mL
[5]
  IC50, titer in TZM.bl cells: 0.01 µg/mL
  IC80, titer in TZM.bl cells: 0.03 µg/mL
[6]
  IC50, titer in TZM.bl cells: 0.06 µg/mL
  IC80, titer in TZM.bl cells: 0.38 µg/mL
[7]
  neutralization IC50: 0.07 µg/mL
  neutralization IC80: 0.07 µg/mL

## PGDM1400 (antibody)
[1]
  IC50, titer in TZM.bl cells: > 50 µg/mL
  IC80, titer in TZM.bl cells: > 50 µg/mL
[2]
  IC50: 0.003 µg/mL
  IC80: 0.011 µg/mL
[3]
  IC50: 0.002 µg/mL
  IC80: 0.018 µg/mL
[4]
  IC50: 0.28 µg/mL
  IC80: 1.1 µg/mL
[5]
  IC50, titer in TZM.bl cells: > 50 µg/mL
  IC80, titer in TZM.bl cells: > 50 µg/mL
[6]
  IC50, titer in TZM.bl cells: 0.52 µg/mL
  IC80, titer in TZM.bl cells: 10.6 µg/mL
